Measured values as given in PMC8249609 (Cell Research, 2021).

T1: MBP-fusion protein of the COMP EGF domain (mouse, UniProt Q9R0G6 84-261)
T1 construct: cartilage oligomeric matrix protein, mouse, EGF repeat domain; Vector pMAL-p5x; also called MBP-COMP-EGF; source: E. coli BL21, purified
T1 sequence (looked up): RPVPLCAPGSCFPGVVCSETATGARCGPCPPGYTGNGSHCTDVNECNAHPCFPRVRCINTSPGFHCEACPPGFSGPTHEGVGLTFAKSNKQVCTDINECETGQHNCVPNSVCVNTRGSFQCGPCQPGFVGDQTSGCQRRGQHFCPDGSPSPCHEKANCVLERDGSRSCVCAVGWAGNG

T2: YFP-tagged AT1 receptor ( (human AT1 or mouse AT1a …, UniProt P30556 1-359))
T2 construct: also called AT1-YFP; Flag-tagged AT1-YFP; source: HEK293T, transfected, in cells
T2 sequence (looked up): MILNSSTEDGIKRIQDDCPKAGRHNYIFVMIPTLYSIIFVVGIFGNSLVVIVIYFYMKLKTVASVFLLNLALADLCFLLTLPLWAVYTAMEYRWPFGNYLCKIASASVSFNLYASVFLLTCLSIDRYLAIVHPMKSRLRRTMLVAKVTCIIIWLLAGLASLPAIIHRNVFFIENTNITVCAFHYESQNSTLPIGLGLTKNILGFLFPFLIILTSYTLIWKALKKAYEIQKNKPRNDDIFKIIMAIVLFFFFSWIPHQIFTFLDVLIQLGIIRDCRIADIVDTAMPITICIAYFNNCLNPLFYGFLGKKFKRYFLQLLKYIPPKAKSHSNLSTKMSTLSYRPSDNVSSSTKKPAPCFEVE

B1: cartilage oligomeric matrix protein with a C-terminal His-tag (COMP-His) (natural protein)
chain: not shown
notes: cartilage oligomeric matrix protein, mouse, cDNA NM_016685.2; secreted into the conditioned medium of Sf9 cells; also called purified COMP; pentameric COMP protein
B2: GST-fused N-terminus of mouse AT1a receptor (aa 1-27) (domain or fragment, UniProt P29754 1-27, looked up)
chain: MALNSSTEDGIKRIQDDCPRAGRHSYI
notes: also called GST-fused N-terminus of AT1a; source: purified (vector pGEX-6P-1; host not clearly stated)
B3: AT1 receptor, residues 1-318, with N-terminal Flag-tag and BRIL (Flag-BRIL-AT1) (receptor, UniProt P30556 1-318, looked up)
chain: MILNSSTEDGIKRIQDDCPKAGRHNYIFVMIPTLYSIIFVVGIFGNSLVVIVIYFYMKLKTVASVFLLNLALADLCFLLTLPLWAVYTAMEYRWPFGNYLCKIASASVSFNLYASVFLLTCLSIDRYLAIVHPMKSRLRRTMLVAKVTCIIIWLLAGLASLPAIIHRNVFFIENTNITVCAFHYESQNSTLPIGLGLTKNILGFLFPFLIILTSYTLIWKALKKAYEIQKNKPRNDDIFKIIMAIVLFFFFSWIPHQIFTFLDVLIQLGIIRDCRIADIVDTAMPITICIAYFNNCLNPLFYGFLGKKFKRYFLQLLK
notes: Order on the chain as printed: Flag-tag, BRIL, AT1; Detergent-solubilised (DDM/CHS in the running buffer); also called purified AT1 receptor; AngII type 1 receptor
B4: β-arrestin-1 fused with Renilla luciferase (natural protein, UniProt P49407 1-418, looked up)
chain: MGDKGTRVFKKASPNGKLTVYLGKRDFVDHIDLVDPVDGVVLVDPEYLKERRVYVTLTCAFRYGREDLDVLGLTFRKDLFVANVQSFPPAPEDKKPLTRLQERLIKKLGEHAYPFTFEIPPNLPCSVTLQPGPEDTGKACGVDYEVKAFCAENLEEKIHKRNSVRLVIRKVQYAPERPGPQPTAETTRQFLMSDKPLHLEASLDKEIYYHGEPISVNVHVTNNTNKTVKKIKISVRQYADICLFNTAQYKCPVAMEEADDTVAPSSTFCKVYTLTPFLANNREKRGLALDGKLKHEDTNLASSTLLREGANREILGIIVSYKVKVKLVVSRGGLLGDLASSDVAVELPFTLMHPKPKEEPPHREVPENETPVDTNLIELDTNDDDIVFEDFARQRLKGMKDDKEEEEDGTGSPQLNNR
notes: β-arrestin-1; also called β-arrestin-1-RLuc; source: HEK293T, transfected, in cells
B5: mouse COMP fused with the modified Renilla luciferase at the C-terminus (natural protein)
chain: not shown
notes: cartilage oligomeric matrix protein, mouse; also called COMP-RLuc; source: HEK293T, transfected; not shown: RLuc (modified Renilla luciferase), C-terminal, kept

Tests used:
[1] = molecular target: the molecule itself; assay: SEC + native gel or EMSA; purified COMP; gel filtration chromatography and non-reduced native PAGE followed by western blotting; pentamer
[2] = molecular target: T1, MBP-fusion protein of the COMP EGF …; assay: pull-down; MBP fusion proteins of COMP domains and GST-fused AT1a N-terminus, equimolar, 4 °C 2 h; amylose resin; western blot with anti-GST; details: both partners purified
[3] = molecular target: B1; assay: SPR; BiaCore 8 K; AT1 amine-coupled to a CM5 chip (~4500 RU); analyte in two-fold dilutions (COMP 0.43–110 nM), 120 s association, 200 s dissociation; 10 mM HEPES pH 7.4, 150 mM NaCl, 0.05% P20, 0.01% DDM, 0.002% CHS; 1:1 binding model; details: both partners purified
YFP-tagged AT1 receptor [4] = molecular target: T2, YFP-tagged AT1 receptor; assay: FRET or BRET; as a12, cells pre-incubated with purified COMP (100 nM) for 30 min before AngII; details: partners not purified
YFP-tagged AT1 receptor [5] = molecular target: T2, YFP-tagged AT1 receptor; assay: FRET or BRET; HEK293T cells co-transfected with AT1-YFP and β-arrestin-1-RLuc or β-arrestin-2-RLuc; vehicle, then increasing AngII for 5 min; BRET ratio YFP/RLuc; details: partners not purified
[6] = molecular target: the molecule itself; assay: native gel or EMSA; COMP-RLuc; 6% native PAGE without SDS and β-mercaptoethanol is the paper's method for the pentameric form of COMP; shown in Supplementary Fig. S11a

Binder: B1
stoichiometry N [1]: 5

Binder: B2
binding result [2]: binds

Binder: B3
Kd [3]: 1.42 ± 0.014 nM

Binder: B4
EC50 of AngII for the recruitment (BRET), with 100 nM COMP (YFP-tagged AT1 receptor [4]): 2.16 nM
EC50 of AngII for the recruitment (BRET), vehicle (YFP-tagged AT1 receptor [5]): 0.89 nM

Binder: B5
stoichiometry N [6]: 5
